Test results from publication PMC7793253, “CEP290 is essential for the initiation of ciliary transition zone assembly” (PLoS Biology, 2020).
Substitutions are numbered along the chain they refer to. Names and notes keep the numbering of the source.

B1: CEP290 N (aa 651–887) (domain or fragment, Drosophila, UniProt Q9W0M1 651-887, looked up)
chain: EHPVEEDAVLNTATRPSSPTEATMGLRRPTVPDPEEKPTNEALAELSILRKHYDELRLHMSADGSDLMNRNQELHDQMIALELQLEQQRNSYSYMRRDYDQLLTETRKQELRFIDDKASLARQLEHSKSELCEAREELEQVNRRNLYTAEEQQKLEHRNAILSMQLGQAMEQLLGELKPTEICAEYGIIRENYQLDYITAQDFEEQQQELLTWRSKQAELQRETKQLEGLLHVANEQ
notes: Drosophila centrosomal protein 290 (CEP290); This construct is not described in the methods; probably His-tagged and made in E. coli like His-CEP290-N
B2: GST-DZIP1-C (aa 294–737) (domain or fragment, Drosophila, UniProt Q9VC70 294-737, looked up)
chain: DINKRLEGLSHALEQSKQASASTPPLEDRVATPCLEDLERILTEKVAEIGKVSAHRLEEVVYHLEEGYKEKLGALERELKQLSVQKVQPEPVQTVPVASKIPKPVVRKEETNIDRIRKQVESEFLKQKHDDDTYSIEEAPRKGSEKPFPQLVTQVQVVEKEQPSAGSSDSNPTYTKSPREPAPNKQETKEATDVSDSLSQEETENEEERSLTEEEGTDVPTSGSEAAREDPTPKTIKPSGRIIKSPQKPLTRKDARKMVNRKLMSHGFDMKSKGISHNSLKRVNSELTEHRNKLKLQHPHFYATRNRIRKFVEKLCSAKFSERAEMLLKHKSPLKPMEVPGKGIPRSAISEKSEEDIASSQGEEQTDEQTDSSEQQTRSPSPQRLVSRDFKARLEEILVKPAATIRGASKSSLSSRPVPLPRKRVMFNTTEDGKSFNDSDDNLK
notes: Cloned into pGEX-4T-1; also called C-terminus of DZIP1; source: E. coli BL21 (DE3), purified (Glutathione Sepharose)
B3: GST-DZIP1-N (aa 1–293) (domain or fragment, Drosophila, UniProt Q9VC70 1-293, looked up)
chain: MGFKGKYPQMVRETGFKLRQYRDGPLDWRLMGSYETERILREQNFELVDKALTHLSEAPLGTVLETHILDSGIAKYFVMSQYAIQYLMCCRTYLDECVTDLKEAHTTAQEEIATLRKSLSESNNEVVQLHKRITQIEAIREVVYPCHLCTKNFISNEALNVHIGRKHRVASPPSLTSATGKEKDRDKATDVHLINTIKMELEIKQLKERLNAAERNIKERSTGSKRVSPRQEQRHVGIQSNLAEPKEKDEDSGEARQSEASERKEQLTGLAERLSNFEEWQTQLKQSNEQFIQ
notes: Cloned into pGEX-4T-1; also called N-terminus of DZIP1; source: E. coli BL21 (DE3), purified (Glutathione Sepharose)
B4: CEP290 N (aa 401–650) (domain or fragment, Drosophila, UniProt Q9W0M1 401-650, looked up)
chain: GLIPALRRCSGLEQKVAARDKQLRAYIQELNSLHEVVQENELLRRKLHIPDDVVIMAKNVHSKQRNKDKQIERLTLKLRTSEELRLQLKLEKSELRRKLLELQQDSPQTLNESLQAPSEVGEVPHSVHLENSPRRGQGDGAASSEMQNRYDEVLAENETLRSGMYEILEKLREYDATSEHITIDSDLLRRLIEALPGGTTTPQRLQGQLLELKAREEALRQLLEQQNYSDSETGELSSVHSLCEVPEIAE
notes: as for B1
B5: His-Rab8 (natural protein, Drosophila, UniProt O18338 1-207, looked up)
chain: MAKTYDYLFKLLLIGDSGVGKTCILFRFSEDAFNTTFISTIGIDFKIRTIELDNKKIKLQIWDTAGQERFRTITTAYYRGAMGIMLVYDITQEKSFENIKNWIRNIEENASADVEKMLLGNKCELTDKRQVSKERGEQLAIEYGIKFMETSAKASINVEEAFLTLASDIKAKTEKRMEANNPPKGGHQLKPMDSRTKDSWLSRCSLL
notes: Drosophila Rab8; Cloned into pET28a; source: E. coli BL21 (DE3), purified (His resin)
B6: His-Rab8^T22N (natural protein, Drosophila, UniProt O18338 1-207, looked up)
chain: B5 chain with T22N
notes: Drosophila Rab8 with T22N; Cloned into pET28a; also called Rab8^GDP-mimicking mutant; source: E. coli BL21 (DE3), purified (His resin)

What was measured:
Assay in all cases: pull-down; GST pull-down: purified His-tagged proteins incubated with GST, GST-DZIP1-N or GST-DZIP1-C in 25 mM Tris-HCl pH 7.4, 150 mM NaCl, 0.5% Triton X-100, 1 mM dithiothreitol, 10% glycerol, overnight at 4°C; blot with anti-His antibodies
Settings in all cases: both partners purified
GST-DZIP1-C (aa 294–737) = biological target: B2
GST-DZIP1-N (aa 1–293) = biological target: B3
His-CEP290-N (aa 1–887) = biological target: T1, His-CEP290-N (aa 1–887) (Drosophila, UniProt Q9W0M1 1-887)
T1 construct: Drosophila centrosomal protein 290 (CEP290); Cloned into pET28a; also called CEP290 N-terminus; source: E. coli BL21 (DE3), purified (His resin)
T1 sequence (looked up): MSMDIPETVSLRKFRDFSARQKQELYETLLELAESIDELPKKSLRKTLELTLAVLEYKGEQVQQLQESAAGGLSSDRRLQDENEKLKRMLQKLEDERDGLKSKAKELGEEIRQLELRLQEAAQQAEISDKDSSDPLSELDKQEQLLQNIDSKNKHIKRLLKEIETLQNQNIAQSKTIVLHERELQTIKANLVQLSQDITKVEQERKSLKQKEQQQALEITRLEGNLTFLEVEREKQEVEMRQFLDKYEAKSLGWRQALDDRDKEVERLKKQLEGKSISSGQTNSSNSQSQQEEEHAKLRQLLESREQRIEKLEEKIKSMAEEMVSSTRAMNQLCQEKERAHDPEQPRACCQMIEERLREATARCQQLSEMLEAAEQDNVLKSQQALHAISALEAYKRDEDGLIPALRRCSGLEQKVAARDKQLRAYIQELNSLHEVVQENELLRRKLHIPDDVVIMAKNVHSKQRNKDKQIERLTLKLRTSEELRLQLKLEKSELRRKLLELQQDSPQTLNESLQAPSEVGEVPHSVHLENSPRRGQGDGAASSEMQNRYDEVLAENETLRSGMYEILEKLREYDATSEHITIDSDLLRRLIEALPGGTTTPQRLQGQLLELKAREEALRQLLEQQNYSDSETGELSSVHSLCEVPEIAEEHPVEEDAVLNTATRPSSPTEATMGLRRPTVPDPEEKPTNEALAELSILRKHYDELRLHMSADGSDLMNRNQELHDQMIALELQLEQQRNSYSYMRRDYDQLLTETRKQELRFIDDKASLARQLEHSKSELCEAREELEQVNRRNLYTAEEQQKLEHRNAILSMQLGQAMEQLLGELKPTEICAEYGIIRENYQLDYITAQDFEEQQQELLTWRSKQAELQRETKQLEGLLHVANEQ

**Q.** Does B1 bind (GST-DZIP1-C (aa 294–737))?
**A.** Result: binds

**Q.** Does B1 bind (GST-DZIP1-N (aa 1–293))?
**A.** Result: binds

**Q.** Does B2 bind (His-CEP290-N (aa 1–887))?
**A.** Result: binds

**Q.** Does B3 bind (His-CEP290-N (aa 1–887))?
**A.** Result: binds

**Q.** Does B4 bind (GST-DZIP1-N (aa 1–293))?
**A.** Result: binds

**Q.** Does B5 bind (GST-DZIP1-N (aa 1–293))?
**A.** Result: binds

**Q.** Does B6 bind (GST-DZIP1-N (aa 1–293))?
**A.** Result: binds
